This note sets out measurements from article PMC6378967.

The series can be described thus: steady-state kinetics, released Ang I immunoassay. As to conditions: glycan lost; control: fully glycosylated WT AGT.

B1: angiotensinogen (AGT): N14Q (protein)
parent chain: MAPAGVSLRATILCLLAWAGLAAGDRVYIHPFHLVIHNESTCEQLAKANAGKPKDPTFIPAPIQAKTSPVDEKALQDQLVLVAAKLDTEDKLRAAMVGMLANFLGFRIYGMHSELWGVVHGATVLSPTAVFGTLASLYLGALDHTADRLQAILGVPWKDKNCTSRLDAHKVLSALQAVQGLLVAQGRADSQAQLLLSTVVGVFTAPGLHLKQPFVQGLALYTPVVLPRSLDFTELDVAAEKIDRFMQAVTGWKTGCSLMGASVDSTLAFNTYVHFQGKMKGFSLLAEPQEFWVDNSTSVSVPMLSGMGTFQHWSDIQDNFSVTQVPFTESACLLLIQPHYASDLDKVEGLTFQQNSLNWMKKLSPRTIHLTMPQLVLQGSYDLQDLLAQAELPAILHTELNLQKLSNDRIRVGEVLNSIFFELEADEREPTESTQQLNKPEVLEVTLNRPFLFAVYDQSATALHFLGRVANPLSTA
With B1, the “other: proteolytic processing, kcat_Km” value is recorded as “increases, 0.64 ± 0.03 vs 0.25 ± 0.01, 0.64 ± 0.03 (252%)”.

B2: angiotensinogen (AGT): N4 (protein)
parent chain: MAPAGVSLRATILCLLAWAGLAAGDRVYIHPFHLVIHNESTCEQLAKANAGKPKDPTFIPAPIQAKTSPVDEKALQDQLVLVAAKLDTEDKLRAAMVGMLANFLGFRIYGMHSELWGVVHGATVLSPTAVFGTLASLYLGALDHTADRLQAILGVPWKDKNCTSRLDAHKVLSALQAVQGLLVAQGRADSQAQLLLSTVVGVFTAPGLHLKQPFVQGLALYTPVVLPRSLDFTELDVAAEKIDRFMQAVTGWKTGCSLMGASVDSTLAFNTYVHFQGKMKGFSLLAEPQEFWVDNSTSVSVPMLSGMGTFQHWSDIQDNFSVTQVPFTESACLLLIQPHYASDLDKVEGLTFQQNSLNWMKKLSPRTIHLTMPQLVLQGSYDLQDLLAQAELPAILHTELNLQKLSNDRIRVGEVLNSIFFELEADEREPTESTQQLNKPEVLEVTLNRPFLFAVYDQSATALHFLGRVANPLSTA
With B2, the “other: proteolytic processing, kcat_Km” value is recorded as “increases, 0.65 ± 0.08 vs 0.25 ± 0.01, 0.65 ± 0.08 (255%)”.
